Here are results for three substances from article PMC11890623, “Pseudomonas aeruginosa acyl-CoA dehydrogenases and structure-guided inversion of their substrate specificity” (Nature Communications, 2025).

Data set [1] addresses FadE1 (PA0506), fatty acyl-CoA dehydrogenase of Pseudomonas aeruginosa (Pseudomonas aeruginosa PAO1). Description: AUC; sedimentation at 50000 rpm, 20 °C; protein at 1 mg/mL in 20 mM Tris-HCl, 100 mM NaCl, 10 mM imidazole (pH 7.5); absorbance and interference scans; analysis with SEDFIT; His6 tags removed.
Data set [2] has as its system T1, CCCCCCCC(=O)SCCNC(=O)CCNC(=O)[C@H](O)C(C)(C)COP(=O)(O)OP(=O)(O)OC[C@H]1O[C@@H](n2cnc3c(N)ncnc32)[C@H](O)[C@@H]1OP(=O)(O)O.
T1 construct: full-length ORF, His6 tag removed by TEV
Kind of data set: purified protein. The data set is classed as biochemical, Pseudomonas aeruginosa. Particulars: FAD sandwiched between catalytic Glu441 and the FAD.

Data set [3] relates to T2, CCCCCCCCCCCCCCCC(=O)SCCNC(=O)CCNC(=O)[C@H](O)C(C)(C)COP(=O)(O)OP(=O)(O)OC[C@H]1O[C@@H](n2cnc3c(N)ncnc32)[C@H](O)[C@@H]1OP(=O)(O)O.
T2 construct: full-length ORF, His6 tag removed by TEV
Kind of data set: Michaelis-Menten kinetics of purified enzyme (KM). It counts as biochemical, Pseudomonas aeruginosa. The settings on record: FAD.

Data set [4] concerns the target FadE2 (PA0508), fatty acyl-CoA dehydrogenase of Pseudomonas aeruginosa (Pseudomonas aeruginosa PAO1). Description: AUC; sedimentation at 50000 rpm, 20 °C; protein at 1 mg/mL in 20 mM Tris-HCl, 100 mM NaCl, 10 mM imidazole (pH 7.5); absorbance and interference scans; analysis with SEDFIT; His6 tags removed.

For orientation: stoichiometry N means the number of molecules, sites or subunits per partner or assembly. The substance “FadE1 (PA0506), fatty acyl-CoA dehydrogenase of Pseudomonas aeruginosa (enzyme)” had a stoichiometry N in data set [1] of 2.
In general, Km refers to the concentration of substrate that gives half-maximal velocity. In the case of FadE1 (Pseudomonas aeruginosa PAO1), the values for the Km in data set [2] and in data set [3] were 12.29 ± 1.43 µM and 16.36 ± 2.09 µM, respectively.
In turn, “FadE2 (PA0508), fatty acyl-CoA dehydrogenase of Pseudomonas aeruginosa (enzyme)” came in with a stoichiometry N in data set [4] of 2.
